Measured values as given in patent US20200317802A1 (Merck KGaA, published 2020).
Changes are numbered by the printed parent chain.

T1: guinea pig recombinant ADAMTS5 (guinea pig)
T1 chain: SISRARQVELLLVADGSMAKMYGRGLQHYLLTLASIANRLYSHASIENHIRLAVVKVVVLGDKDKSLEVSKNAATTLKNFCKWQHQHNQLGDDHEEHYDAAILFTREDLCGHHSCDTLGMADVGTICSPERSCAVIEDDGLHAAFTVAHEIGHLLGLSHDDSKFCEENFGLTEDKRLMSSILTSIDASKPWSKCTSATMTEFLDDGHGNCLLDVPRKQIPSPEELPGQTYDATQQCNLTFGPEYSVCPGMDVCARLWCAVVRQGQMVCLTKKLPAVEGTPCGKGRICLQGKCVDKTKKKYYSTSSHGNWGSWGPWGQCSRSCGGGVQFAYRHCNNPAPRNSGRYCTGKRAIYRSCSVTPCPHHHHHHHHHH

T2: cynomolgus monkey recombinant ADAMTS5 (cynomolgus monkey, UniProt Q9UNA0 262-622 (human entry), limits assumed)
T2 chain: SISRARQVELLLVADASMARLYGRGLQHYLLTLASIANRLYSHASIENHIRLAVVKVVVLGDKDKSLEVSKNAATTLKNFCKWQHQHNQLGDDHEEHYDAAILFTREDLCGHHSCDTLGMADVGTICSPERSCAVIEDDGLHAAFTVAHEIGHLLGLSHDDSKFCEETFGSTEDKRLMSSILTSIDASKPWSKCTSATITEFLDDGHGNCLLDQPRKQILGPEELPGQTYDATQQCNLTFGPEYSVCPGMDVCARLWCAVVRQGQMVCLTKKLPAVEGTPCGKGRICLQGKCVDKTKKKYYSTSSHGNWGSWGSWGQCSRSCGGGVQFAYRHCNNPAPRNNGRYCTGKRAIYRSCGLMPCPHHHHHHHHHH

T3: recombinant human ADAMTS5 (R&D Systems cat #2198-AD) (human, UniProt Q9UNA0 262-622, limits assumed)
T3 sequence: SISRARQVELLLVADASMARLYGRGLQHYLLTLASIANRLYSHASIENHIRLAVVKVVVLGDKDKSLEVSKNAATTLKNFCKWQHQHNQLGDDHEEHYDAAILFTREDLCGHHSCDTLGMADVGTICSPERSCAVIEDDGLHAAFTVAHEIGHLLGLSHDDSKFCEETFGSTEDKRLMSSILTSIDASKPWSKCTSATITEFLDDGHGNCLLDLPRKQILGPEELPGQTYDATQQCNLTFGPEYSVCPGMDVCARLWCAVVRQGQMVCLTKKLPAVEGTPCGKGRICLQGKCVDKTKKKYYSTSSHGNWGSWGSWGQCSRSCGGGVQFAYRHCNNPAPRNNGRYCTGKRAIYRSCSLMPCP

B1: Nanobody 2A12 (VHH)
VHH: EVQLVESGGGLVQAGGSLRLSCAASGRTFSSYAMGWFRQAPGKERDFVAGISRSAGRTYYVDSVKGRFTISRDSAKNTVYLQMNRLKPEDTAVYYCAADLDPNRIFSRDEAAYWGQGTLVTVSS
notes: tagged as tested (anti-Flag detection, IMAC); also called 02A12
B2: Nanobody 2F03 (VHH)
VHH: B1 VHH with F29V, Q39L, D46E, G56E, V64L, Q82H, D109E, A111Y
notes: tagged as tested (anti-Flag detection, IMAC); also called 02F03; 2F3

Assays:
[1] = target: T1, guinea pig recombinant ADAMTS5; experiment: cell-based or functional assay
[2] = target: T2, cynomolgus monkey recombinant ADAMTS5; experiment: cell-based or functional assay
[3] = target: T3, recombinant human ADAMTS5 (R&D Systems …); experiment: cell-based or functional assay
[4] = target: T3, recombinant human ADAMTS5 (R&D Systems …); experiment: cell-based or functional assay; remark: listed apart in the source
[5] = target: T3, recombinant human ADAMTS5 (R&D Systems …); experiment: binding ELISA, periplasmic extract on coated human ADAMTS5
Experimental: In a first step, periplasmic extracts were tested for binding to recombinant human ADAMTS5 by binding ELISA. In brief, recombinant human ADAMTS5 (R&D Systems, Minneapolis, US; cat #2198-AD) at a concentration of 1 μg/ml was coated on 384-well MaxiSorp plates (Nunc, Wiesbaden, Germany). Wells were blocked with a casein solution (1%). After addition of a 10-fold dilution of the periplasmic extracts, Nanobody binding was detected using a mouse anti-Flag-HRP conjugate (Sigma, St. Louis, US) and a subsequent enzymatic reaction in the presence of the substrate esTMB (3,3′,5,5′-tetramentylbenzidine) (SDT, Brussels, Belgium). Clones showing ELISA signals higher than the sum of the average signal of the irrelevant Nanobody controls and 3 times the standard deviation of the irrelevant Nanobody controls were considered to encode positive human ADAMTS5 binding Nanobodies.

[6] = target: T1, guinea pig recombinant ADAMTS5; experiment: SPR off-rate, Biacore T100, ADAMTS5 immobilised, experiment 1
Experimental: (§1) Species cross-reactivity was initially evaluated via SPR-based off-rate analysis on a Biacore T100 instrument. Nanobodies were tested for binding to human, cynomolgus monkey (“cyno”), guinea pig, mouse, and bovine ADAMTS5. To this end, recombinant ADAMTS5 was immobilized onto a CM5 chip via amine coupling using EDC and NHS. Purified Nanobodies were injected for 2 minutes at a concentration of 100 nM and allowed to dissociate for 15 min at a flow rate of 45 ul/min. Off-rate for each individual Nanobody was determined by fitting a 1:1 interaction model (Langmuir model) onto the individual dissociation curves using the BIA Evaluation software. As a reference, off-rates on human ADAMTS5 were determined in each experiment.

[7] = target: T2, cynomolgus monkey recombinant ADAMTS5; experiment: as above
Experimental: as §1

[8] = target: T3, recombinant human ADAMTS5 (R&D Systems …); experiment: as above
Experimental: as §1

[9] = target: T3, recombinant human ADAMTS5 (R&D Systems …); experiment: cell-based or functional assay; remark: listed apart in the source
[10] = target: T3, recombinant human ADAMTS5 (R&D Systems …); experiment: SPR off-rate, Biacore T100, ADAMTS5 immobilised, experiment 3
Experimental: as §1

Binder	AlphaLISA potency IC50, Guinea pig [1] [pM]	AlphaLISA potency IC50, Cyno [2] [pM]	AlphaLISA potency IC50, Human [3] [pM]	Human AlphaLISA % inhibition [4] [%]	Human AlphaLISA IC50 [4] [pM]	binding ELISA (OD 450 nm) [5] [OD 450 nm]	koff [6] [s⁻¹]	koff [7] [s⁻¹]	koff [8] [s⁻¹]	FRET assay % inh, periplasmic extract [9] [%]	FRET assay vi (U/min), periplasmic extract [9] [U/min]	koff [10] [s⁻¹]
B1	530	190	150	100	150	1.75	0.00012	0.0001	0.00014	104	-1	0.00031
B2	300	81	75	100	75	1.84	3.4e-05	2.2e-05	3.3e-05	103	-1	9.7e-05
